Experimental data: US20220064286A1 (Genentech, published 2022)
Numbering of substitutions follows the chain as printed. Names may count otherwise.

B1: 4.1D3 (antibody, V domains shown)
VH: QVQLQQSGPGLVKPSQTLSLTCAISGDSVSSNSAAWNWIRQSPSRGLEWLGKTYYRFKWYSDYAVSVKGRITINPDTSKNQFSLQLNSVTPEDTAVFYCTRESTTYDLLAGPFDYWGQGTLVTVSS
VL: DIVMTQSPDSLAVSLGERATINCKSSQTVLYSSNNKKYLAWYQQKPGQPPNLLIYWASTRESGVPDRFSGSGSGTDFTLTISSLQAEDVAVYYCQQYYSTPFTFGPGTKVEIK
notes: OMT rat-derived human antibody; also called 4.1D3.Q1
B2: 7.4A3.C96S.Q1E (antibody, V domains shown)
VH: EVQLVQSGSDLKKPGASVRVSCKASGYTFTSYPMNWVRQAPGHGLEWMGWINTNTGNPTYVQGFTGRFVFSLDTSVNTAYLQISSLKAEDTAVYFCARTGGHTYDSYAFDVWGQGTMVTVSS
VL: DIQLTQSPTFLSASVGDRVTITCRASQVISSSLAWYQQNPGKAPKLLIYAASTLQSGVPSRFSGSGSGTEFTLTISSLQPEDFVTYYCQHLHGYPSNFGQGTKVEIK
notes: also called 7.4A3.Q1E.C96S
B3: 10A7 (antibody, V domains shown)
VH: EVQLVESGGGLTQPGKSLKLSCEASGFTFSSFTMHWVRQSPGKGLEWVAFIRSGSGIVFYADAVRGRFTISRDNAKNLLFLQMNDLKSEDTAMYYCARRPLGHNTFDSWGQGTLVTVSS
VL: DIVMTQSPSSLAVSPGEKVTMTCKSSQSLYYSGVKENLLAWYQQKPGQSPKLLIYYASIRFTGVPDRFTGSGSGTDYTLTITSVQAEDMGQYFCQQGINNPLTFGDGTKLEIKR
B4: 4.1D3.Q1E (antibody, V domains shown)
VH: B1 VH with Q1E
VL: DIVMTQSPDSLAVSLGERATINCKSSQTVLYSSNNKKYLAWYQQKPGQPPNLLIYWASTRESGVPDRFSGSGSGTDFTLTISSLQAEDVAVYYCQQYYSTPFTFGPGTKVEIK

The binders below were run against T1, hTIGIT mutant L65A (human, UniProt Q495A1) (assay: SPR (BIACORE), N=2).
T1 sequence (TIGIT, looked up): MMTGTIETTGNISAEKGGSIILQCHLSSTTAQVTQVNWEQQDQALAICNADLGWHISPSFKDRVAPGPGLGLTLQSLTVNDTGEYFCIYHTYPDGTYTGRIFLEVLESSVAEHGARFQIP
For B1, the Kd was 8.8 nM. B2 was tested, and the Kd was 3.9 nM. B3 showed a Kd of 10.6 nM.

What follows are binders tested against T2, hTIGIT mutant E60A (human, UniProt Q495A1) (assay: SPR (BIACORE), N=2).
T2 sequence (TIGIT, looked up): T1 sequence (TIGIT, looked up) with E39A, A44L
With B1 the Kd was 6.1 nM. In the case of B2, the Kd is reported as 4.8 nM. For B3, the Kd was 40.3 nM.

The binders below were run against T3, hTIGIT mutant Q56A (human, UniProt Q495A1) (assay: SPR (BIACORE), N=2).
T3 sequence (TIGIT, looked up): T1 sequence (TIGIT, looked up) with Q35A, A44L
With B1 the Kd was 2.7 nM. B2 showed a Kd of 23.7 nM. For B3, the Kd was 29.5 nM.

These binders were tested against T4, hTIGIT mutant H111A (human, UniProt Q495A1) (assay: SPR (BIACORE), N=2).
T4 sequence (TIGIT, looked up): T1 sequence (TIGIT, looked up) with A44L, H90A
For B1, the Kd was 1.9 nM. Binder B2 has a Kd of 151 nM. Work on B3 yielded a Kd of 33.3 nM.

These binders were tested against T5, hTIGIT mutant I68A (human, UniProt Q495A1) (assay: SPR (BIACORE), N=2).
T5 sequence (TIGIT, looked up): T1 sequence (TIGIT, looked up) with A44L, I47A
Work on B1 yielded a Kd of 10.5 nM. Binder B2 has a Kd of 4.9 nM. With B3 the Kd was 17.1 nM.

Each binder was assayed against T6, hTIGIT mutant H76A (human, UniProt Q495A1) (assay: SPR (BIACORE), N=2).
T6 sequence (TIGIT, looked up): T1 sequence (TIGIT, looked up) with A44L, H55A
For B1, the Kd was 0.7 nM. B2 showed a Kd of 4.2 nM. For B3, the Kd was over 500 nM.

The binders below were run against T7, hTIGIT mutant N70A (human, UniProt Q495A1) (assay: SPR (BIACORE), N=2).
T7 sequence (TIGIT, looked up): T1 sequence (TIGIT, looked up) with A44L, N49A
Binder B1 has a Kd of 1.7 nM. With B2 the Kd was 10.7 nM. Work on B3 yielded a Kd of 24.3 nM.

These binders were tested against T8, hTIGIT mutant T117A (human, UniProt Q495A1) (assay: SPR (BIACORE), N=2).
T8 sequence (TIGIT, looked up): T1 sequence (TIGIT, looked up) with A44L, T96A
With B1 the Kd was 0.7 nM. B2 was tested, and the Kd was 3.3 nM. Work on B3 yielded a Kd of 36.4 nM.

These binders were tested against T1, hTIGIT mutant L65A (assay: SPR (BIACORE) KD normalized to WT, N=2).
With B1 the “Binding affinity drop vs. WT” value was 17.6 fold. For B2, the “Binding affinity drop vs. WT” value was 2.2 fold. With B3 the “Binding affinity drop vs. WT” value was 0.2 fold.

What follows are binders tested against T2, hTIGIT mutant E60A (assay: SPR (BIACORE) KD normalized to WT, N=2).
For B1, the “Binding affinity drop vs. WT” value was 12.2 fold. B2 was tested, and the “Binding affinity drop vs. WT” value was 2.7 fold. B3 was tested, and the “Binding affinity drop vs. WT” value was 0.9 fold.

What follows are binders tested against T3, hTIGIT mutant Q56A (assay: SPR (BIACORE) KD normalized to WT, N=2).
For B1, the “Binding affinity drop vs. WT” value was 5.4 fold. With B2 the “Binding affinity drop vs. WT” value was 13.2 fold. B3 was tested, and the “Binding affinity drop vs. WT” value was 0.7 fold.

The binders below were run against T4, hTIGIT mutant H111A (assay: SPR (BIACORE) KD normalized to WT, N=2).
For B1, the “Binding affinity drop vs. WT” value was 3.8 fold. With B2 the “Binding affinity drop vs. WT” value was 84 fold. B3 was tested, and the “Binding affinity drop vs. WT” value was 0.7 fold.

These binders were tested against T5, hTIGIT mutant I68A (assay: SPR (BIACORE) KD normalized to WT, N=2).
In the case of B1, the “Binding affinity drop vs. WT” value is reported as 21 fold. For B2, the “Binding affinity drop vs. WT” value was 2.7 fold. With B3 the “Binding affinity drop vs. WT” value was 0.4 fold.

The binders below were run against T6, hTIGIT mutant H76A (assay: SPR (BIACORE) KD normalized to WT, N=2).
For B1, the “Binding affinity drop vs. WT” value was 1.4 fold. B2 was tested, and the “Binding affinity drop vs. WT” value was 2.3 fold. For B3, the “Binding affinity drop vs. WT” value was over 11 fold.

These binders were tested against T7, hTIGIT mutant N70A (assay: SPR (BIACORE) KD normalized to WT, N=2).
In the case of B1, the “Binding affinity drop vs. WT” value is reported as 3.4 fold. For B2, the “Binding affinity drop vs. WT” value was 5.9 fold. With B3 the “Binding affinity drop vs. WT” value was 0.5 fold.

These binders were tested against T8, hTIGIT mutant T117A (assay: SPR (BIACORE) KD normalized to WT, N=2).
For B1, the “Binding affinity drop vs. WT” value was 1.4 fold. B2 was tested, and the “Binding affinity drop vs. WT” value was 1.8 fold. For B3, the “Binding affinity drop vs. WT” value was 0.8 fold.

What follows are binders tested against T9, human TIGIT protein (human, UniProt Q495A1 22-141, limits assumed) (assay: SPR, monovalent affinity).
T9 construct: Recombinant protein (Genentech) used in ELISA screening and as SPR analyte; also called TIGIT antigen
T9 sequence: T1 sequence (TIGIT, looked up) with A44L
Work on B1 yielded a Kd of 0.61 nM. B4 was tested, and the Kd was 0.57 nM. For B2, the Kd was 2.97 nM.

Each binder was assayed against cynomolgus monkey (cyno) TIGIT protein (cynomolgus monkey, UniProt A0A7N9I9V4 89-209) (assay: SPR, monovalent affinity).
Sequence of cynomolgus monkey (cyno) TIGIT protein (A0A7N9I9V4 entry or part of it): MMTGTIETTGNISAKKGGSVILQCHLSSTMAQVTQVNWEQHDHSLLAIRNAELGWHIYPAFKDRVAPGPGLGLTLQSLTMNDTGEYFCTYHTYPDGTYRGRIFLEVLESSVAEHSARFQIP
B1 showed a Kd of 3.4 nM. B4 was tested, and the Kd was 3.2 nM. With B2 the Kd was 2.02 nM.
